These results are taken from IntAct's records for PubMed 16868027.

Sequences and labels used below:
B1: Disintegrin and metalloproteinase domain-containing protein 22 (Homo sapiens), Q9P0K1-1 (parent)
chain: MQAAVAVSVPFLLLCVLGTCPPARCGQAGDASLMELEKRKENRFVERQSIVPLRLIYRSGGEDESRHDALDTRVRGDLGGPQLTHVDQASFQVDAFGTSFILDVVLNHDLLSSEYIERHIEHGGKTVEVKGGEHCYYQGHIRGNPDSFVALSTCHGLHGMFYDGNHTYLIEPEENDTTQEDFHFHSVYKSRLFEFSLDDLPSEFQQVNITPSKFILKPRPKRSKRQLRRYPRNVEEETKYIELMIVNDHLMFKKHRLSVVHTNTYAKSVVNMADLIYKDQLKTRIVLVAMETWATDNKFAISENPLITLREFMKYRRDFIKEKSDAVHLFSGSQFESSRSGAAYIGGICSLLKGGGVNEFGKTDLMAVTLAQSLAHNIGIISDKRKLASGECKCEDTWSGCIMGDTGYYLPKKFTQCNIEEYHDFLNSGGGACLFNKPSKLLDPPECGNGFIETGEECDCGTPAECVLEGAECCKKCTLTQDSQCSDGLCCKKCKFQPMGTVCREAVNDCDIRETCSGNSSQCAPNIHKMDGYSCDGVQGICFGGRCKTRDRQCKYIWGQKVTASDKYCYEKLNIEGTEKGNCGKDKDTWIQCNKRDVLCGYLLCTNIGNIPRLGELDGEITSTLVVQQGRTLNCSGGHVKLEEDVDLGYVEDGTPCGPQMMCLEHRCLPVASFNFSTCLSSKEGTICSGNGVCSNELKCVCNRHWIGSDCNTYFPHNDDAKTGITLSGNGVAGTNIIIGIIAGTILVLALILGITAWGYKNYREQRQLPQGDYVKKPGDGDSFYSDIPPGVSTNSASSSKKRSNGLSHSWSERIPDTKHISDICENGRPRSNSWQGNLGGNKKKIRGKRFRPRSNSTETLSPAKSPSSSTGSIASSRKYPYPMPPLPDEDKKVNRQSARLWETSI
B2: Disintegrin and metalloproteinase domain-containing protein 22 (Homo sapiens), Q9P0K1-3 (parent)
chain: MQAAVAVSVPFLLLCVLGTCPPARCGQAGDASLMELEKRKENRFVERQSIVPLRLIYRSGGEDESRHDALDTRVRGDLGGPQLTHVDQASFQVDAFGTSFILDVVLNHDLLSSEYIERHIEHGGKTVEVKGGEHCYYQGHIRGNPDSFVALSTCHGLHGMFYDGNHTYLIEPEENDTTQEDFHFHSVYKSRLFEFSLDDLPSEFQQVNITPSKFILKPRPKRSKRQLRRYPRNVEEETKYIELMIVNDHLMFKKHRLSVVHTNTYAKSVVNMADLIYKDQLKTRIVLVAMETWATDNKFAISENPLITLREFMKYRRDFIKEKSDAVHLFSGSQFESSRSGAAYIGGICSLLKGGGVNEFGKTDLMAVTLAQSLAHNIGIISDKRKLASGECKCEDTWSGCIMGDTGYYLPKKFTQCNIEEYHDFLNSGGGACLFNKPSKLLDPPECGNGFIETGEECDCGTPAECVLEGAECCKKCTLTQDSQCSDGLCCKKCKFQPMGTVCREAVNDCDIRETCSGNSSQCAPNIHKMDGYSCDGVQGICFGGRCKTRDRQCKYIWGQKVTASDKYCYEKLNIEGTEKGNCGKDKDTWIQCNKRDVLCGYLLCTNIGNIPRLGELDGEITSTLVVQQGRTLNCSGGHVKLEEDVDLGYVEDGTPCGPQMMCLEHRCLPVASFNFSTCLSSKEGTICSGNGVCSNELKCVCNRHWIGSDCNTYFPHNDDAKTGITLSGNGVAGTNIIIGIIAGTILVLALILGITAWGYKNYREQRQLPQGDYVKKPGDGDSFYSDIPPGVSTNSASSSKKRSNGLSHSWSERIPDTKHISDICENGRPRSNSWQGNLGGNKKKIRGKRFRPRSNSTE
B3: Disintegrin and metalloproteinase domain-containing protein 22 (Homo sapiens), Q9P0K1-1 (parent)
chain: B1 chain
partner: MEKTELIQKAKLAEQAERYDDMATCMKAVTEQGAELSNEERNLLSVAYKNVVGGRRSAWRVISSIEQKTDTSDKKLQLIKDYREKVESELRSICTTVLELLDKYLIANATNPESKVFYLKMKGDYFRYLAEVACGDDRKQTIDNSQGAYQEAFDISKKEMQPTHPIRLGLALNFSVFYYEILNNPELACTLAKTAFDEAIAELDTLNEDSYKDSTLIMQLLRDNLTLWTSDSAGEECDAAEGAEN

The variants in the first test derive from B1. Particulars: with 1433z_human YWHAZ.
On to R831Q;S832G;R854Q;S855A, for which the “effect of a mutation on the interaction” value was “disrupting interaction”.

The variants in another test derive from B1. Particulars: with 1433b_human YWHAB.
Turning to R831Q;S832G;R854Q;S855A, the “effect of a mutation on the interaction” value is “disrupting interaction”.

Variants of B2 are the subject of the next test. Particulars: with 1433b_human YWHAB.
As to R831Q;S832G, the “effect of a mutation on the interaction” value is “decreasing interaction”. In the case of R831Q;S832G;R854Q;S855A, the “effect of a mutation on the interaction” value is recorded as “disrupting interaction”. Turning to R854Q;S855A, the “effect of a mutation on the interaction” value is on record as “decreasing interaction”.

The next test covers variants of B2. The conditions noted are these: with 1433z_human YWHAZ.
On to R831Q;S832G, for which the “effect of a mutation on the interaction” value is “decreasing interaction”.

Regarding R831Q;S832G;R854Q;S855A, the “effect of a mutation on the interaction” value was “disrupting interaction”.

In a further test the parent is B3. The conditions noted are these: with 1433t_human YWHAQ.
On to R831Q;S832G;R854Q;S855A, for which the “effect of a mutation on the interaction” value is reported as “disrupting interaction”.
